Measurements taken from the Human Domainome abundance scans (Beltran et al. 2025).
± gives the uncertainty stated by the source.

assay: abundance fitness (aPCA) (normalised: wild type 0, dead -1); higher = more abundant; growth selection in yeast, the domain comes from the species named; conditions: Homo sapiens

| Substance | abundance fitness |
| --- | --- |
| NEDD4-like E3 ubiquitin-protein ligase WWP2 E443I, O00308 | -0.093 ± 0.073 |
| NEDD4-like E3 ubiquitin-protein ligase WWP2 F472E, O00308 | -0.357 ± 0.061 |
| NEDD4-like E3 ubiquitin-protein ligase WWP2 K473N, O00308 | -0.402 ± 0.095 |
| NEDD4-like E3 ubiquitin-protein ligase WWP2 L446C, O00308 | -0.065 ± 0.054 |
| NEDD4-like E3 ubiquitin-protein ligase WWP2 E457F, O00308 | -0.253 ± 0.074 |
| NEDD4-like E3 ubiquitin-protein ligase WWP2 T455K, O00308 | -0.628 ± 0.082 |
| NEDD4-like E3 ubiquitin-protein ligase WWP2 G482T, O00308 | -0.019 ± 0.06 |
| NEDD4-like E3 ubiquitin-protein ligase WWP2 F479L, O00308 | -0.054 ± 0.049 |
| NEDD4-like E3 ubiquitin-protein ligase WWP2 T455L, O00308 | -0.258 ± 0.048 |
| NEDD4-like E3 ubiquitin-protein ligase WWP2 Q485A, O00308 | -0.036 ± 0.039 |
| NEDD4-like E3 ubiquitin-protein ligase WWP2 N466E, O00308 | -0.238 ± 0.069 |
| NEDD4-like E3 ubiquitin-protein ligase WWP2 W450T, O00308 | -0.475 ± 0.075 |
| NEDD4-like E3 ubiquitin-protein ligase WWP2 K473L, O00308 | -0.165 ± 0.058 |
| NEDD4-like E3 ubiquitin-protein ligase WWP2 S481F, O00308 | -0.039 ± 0.062 |
| NEDD4-like E3 ubiquitin-protein ligase WWP2 D464Q, O00308 | -0.508 ± 0.075 |
| NEDD4-like E3 ubiquitin-protein ligase WWP2 E443Y, O00308 | 0.006 ± 0.058 |
| NEDD4-like E3 ubiquitin-protein ligase WWP2 G489T, O00308 | 0.002 ± 0.066 |
| NEDD4-like E3 ubiquitin-protein ligase WWP2 N466A, O00308 | -0.242 ± 0.034 |
| NEDD4-like E3 ubiquitin-protein ligase WWP2 R460C, O00308 | -0.277 ± 0.074 |
| NEDD4-like E3 ubiquitin-protein ligase WWP2 E480K, O00308 | -0.019 ± 0.05 |

| Substance | abundance fitness |
| --- | --- |
| Transcription factor SOX-11 M110L, P35716 | -0.068 ± 0.053 |
| NEDD4-like E3 ubiquitin-protein ligase WWP2 P448A, O00308 | 0.008 ± 0.044 |
| NEDD4-like E3 ubiquitin-protein ligase WWP2 T467R, O00308 | -0.405 ± 0.18 |
| NEDD4-like E3 ubiquitin-protein ligase WWP2 K453N, O00308 | -0.316 ± 0.063 |
| Transcription factor SOX-11 A111E, P35716 | -0.149 ± 0.094 |
| NEDD4-like E3 ubiquitin-protein ligase WWP2 S481K, O00308 | -0.072 ± 0.049 |
| Transcription factor SOX-11 R65K, P35716 | -0.364 ± 0.34 |
| NEDD4-like E3 ubiquitin-protein ligase WWP2 R493V, O00308 | -0.069 ± 0.037 |
| NEDD4-like E3 ubiquitin-protein ligase WWP2 D464K, O00308 | -0.972 ± 0.11 |
| NEDD4-like E3 ubiquitin-protein ligase WWP2 L446T, O00308 | -0.384 ± 0.071 |
| NEDD4-like E3 ubiquitin-protein ligase WWP2 P477T, O00308 | -0.215 ± 0.068 |
| NEDD4-like E3 ubiquitin-protein ligase WWP2 P488H, O00308 | 0.024 ± 0.062 |
| NEDD4-like E3 ubiquitin-protein ligase WWP2 D474Y, O00308 | -0.251 ± 0.097 |
| NEDD4-like E3 ubiquitin-protein ligase WWP2 R460F, O00308 | -0.261 ± 0.065 |
| NEDD4-like E3 ubiquitin-protein ligase WWP2 S481W, O00308 | -0.09 ± 0.035 |
| NEDD4-like E3 ubiquitin-protein ligase WWP2 T470Y, O00308 | -0.772 ± 0.12 |
| NEDD4-like E3 ubiquitin-protein ligase WWP2 M440I, O00308 | -0.021 ± 0.076 |
| NEDD4-like E3 ubiquitin-protein ligase WWP2 T471K, O00308 | -0.734 ± 0.065 |
| NEDD4-like E3 ubiquitin-protein ligase WWP2 P444K, O00308 | 0.098 ± 0.071 |
| NEDD4-like E3 ubiquitin-protein ligase WWP2 T469S, O00308 | -0.032 ± 0.041 |

| Substance | abundance fitness |
| --- | --- |
| NEDD4-like E3 ubiquitin-protein ligase WWP2 T471G, O00308 | -0.673 ± 0.052 |
| NEDD4-like E3 ubiquitin-protein ligase WWP2 D492Q, O00308 | -0.043 ± 0.088 |
| NEDD4-like E3 ubiquitin-protein ligase WWP2 Y454F, O00308 | -0.083 ± 0.059 |
| NEDD4-like E3 ubiquitin-protein ligase WWP2 A445S, O00308 | 0.04 ± 0.048 |
| NEDD4-like E3 ubiquitin-protein ligase WWP2 K473I, O00308 | 0.028 ± 0.07 |
| NEDD4-like E3 ubiquitin-protein ligase WWP2 L446E, O00308 | -0.576 ± 0.051 |
| NEDD4-like E3 ubiquitin-protein ligase WWP2 A490N, O00308 | -0.195 ± 0.082 |
| NEDD4-like E3 ubiquitin-protein ligase WWP2 K484Q, O00308 | -0.025 ± 0.068 |
| NEDD4-like E3 ubiquitin-protein ligase WWP2 P444M, O00308 | 0.09 ± 0.062 |
| NEDD4-like E3 ubiquitin-protein ligase WWP2 D474S, O00308 | -0.406 ± 0.061 |
| NEDD4-like E3 ubiquitin-protein ligase WWP2 Q485S, O00308 | -0.053 ± 0.046 |
| NEDD4-like E3 ubiquitin-protein ligase WWP2 V463W, O00308 | -0.414 ± 0.068 |
| Transcription factor SOX-11 E78N, P35716 | -0.727 ± 0.09 |
| NEDD4-like E3 ubiquitin-protein ligase WWP2 P448R, O00308 | -0.033 ± 0.047 |
| NEDD4-like E3 ubiquitin-protein ligase WWP2 F462P, O00308 | -0.605 ± 0.099 |
| NEDD4-like E3 ubiquitin-protein ligase WWP2 G486A, O00308 | 0.028 ± 0.038 |
| NEDD4-like E3 ubiquitin-protein ligase WWP2 G489P, O00308 | -0.049 ± 0.041 |
| NEDD4-like E3 ubiquitin-protein ligase WWP2 A490P, O00308 | -0.128 ± 0.065 |
| NEDD4-like E3 ubiquitin-protein ligase WWP2 F479V, O00308 | -0.004 ± 0.04 |
| NEDD4-like E3 ubiquitin-protein ligase WWP2 E443C, O00308 | 0.004 ± 0.076 |
